B1: 9H5 (VHH)
VHH: EVQLVESGGGLVQPGGSLRLSCAASGSIFNLNPMGWYRQAPGKQRELVATVTGEGRTNYSDSVKGRFTISRDNAKNTVYLQMNSLKPEDTAVYYCNAAFWAYDDAYWGQGTQVTVSS
notes: anti-HGF Nanobody clone; not shown: c-myc and His6 tags
B2: 5C7 (VHH)
VHH: EVQLVESGGGLVQAGDSLRLSCAASGGTFGSSHMAWFRQVPEKEREFVAAISRSGGTTYYADSVKGRCTISRDNAKNTVYLQMNSLKPEDTAVYYCAAARFWGSTSTRMDDYQYWGQGTQVTVSS
notes: as for B1

What was measured:
[1] = target: T1, human HGF (R&D material and Peprotech material, values averaged over both) (human, UniProt P14210 32-728); assay: SPR (Biacore T100), summary table
T1 construct: As printed they differ in one letter

[2] = target: T2, human HGF (R&D Systems, 294-HG/CF) (human, UniProt P14210 32-728); assay: SPR (Biacore T100), HGF amine-coupled to CM5 chip, periplasmic extract at one dilution
T2 construct: The entry begins at QRKRR, without signal peptide; Amine-coupled to the chip in SPR and biotinylated in AlphaScreen; also called rec hHGF (R&D systems)
Description: Off-rate constants (Koff) of individual Nanobodies were determined by surface plasmon resonance on a Biacore T100 instrument.
Human HGF (R&D) was amine-coupled to a CM5 sensor chip at a density of 2500 relative units. Remaining reactive groups were inactivated using ethanolamine. Nanobody binding was assessed at a single dilution of periplasmic extract, whereas c-Met was tested with a single concentration of 10 nM. Each sample was injected for 2 min at a flow rate of 45 μl/min to allow for binding to chip-bound antigen. Next, binding buffer without Nanobody was sent over the chip at the same flow rate to allow dissociation of bound Nanobody. After 10 min, remaining bound analyte was removed by injecting regeneration solution (1M NaCl, 50 mM NaOH).

[3] = target: T2, human HGF (R&D Systems, 294-HG/CF); assay: AlphaScreen competition, biotinylated HGF and c-Met-Fc, dilution series of purified Nanobody
Description: (§1) In brief, 5 μl of 1/5 prediluted periplasmic extract of individual Nanobody clones were incubated with 3 nM biotinylated HGF, 2 nM c-Met-Fc, streptavidin coated donor beads and anti-human IgG1 Fc Nanobody covalently coupled AlphaScreen acceptor beads. Monoclonal antibody clone 24612 (R&D systems) known to inhibit the HGF/c-Met-Fc interaction, was used as a positive control. Assays were read in an Envision AlphaScreen™ option fitted multimode reader (Perkin Elmer). Individual clones were scored as putative HGF/c-Met-Fc interaction inhibiting if the presence of the periplasmic extract decreased the fluorescent signal of the acceptor beads. Both inhibitory and non-inhibitory clones were identified. A 10-fold reduction in signal with respect to the negative control (irrelevant periplasmic extract and buffer) was used to select the HGF/c-Met inhibiting Nanobodies. As a positive control, anti-HGF monoclonal antibody (R&D systems, clone 24612) was included. FIG. 2 depicts an example of screen of periplasmic extracts using AlphaScreen.
(§2) Serial dilutions of purified Nanobodies were then analyzed for their ability to block the interaction of human HGF with c-Met-Fc using the same AlphaScreen™ assay as described above (1.4). […]

[4] = target: T1, human HGF (R&D material and Peprotech …); assay: SPR (Biacore T100), purified Nanobody, biphasic dissociation, kd2 fitted 300-720 s after injection start
[5] = target: T1, human HGF (R&D material and Peprotech …); assay: SPR (Biacore T100), purified Nanobody, biphasic dissociation, kd1 fitted 125-185 s after injection start; kd1: early phase of the bi-phasic dissociation, fitted 125 to 185 seconds after injection start
[6] = target: T1, human HGF (R&D material and Peprotech …); assay: SPR (Biacore T100), purified Nanobody, biphasic dissociation, kd1 fitted 125-185 s after injection start
[7] = target: T2, human HGF (R&D Systems, 294-HG/CF); assay: AlphaScreen competition, serial dilution of purified Nanobody; inhibition of biotinylated human HGF binding to c-Met-Fc
Description: as §1, §2

T1 sequence (P14210 32-728 limits assumed): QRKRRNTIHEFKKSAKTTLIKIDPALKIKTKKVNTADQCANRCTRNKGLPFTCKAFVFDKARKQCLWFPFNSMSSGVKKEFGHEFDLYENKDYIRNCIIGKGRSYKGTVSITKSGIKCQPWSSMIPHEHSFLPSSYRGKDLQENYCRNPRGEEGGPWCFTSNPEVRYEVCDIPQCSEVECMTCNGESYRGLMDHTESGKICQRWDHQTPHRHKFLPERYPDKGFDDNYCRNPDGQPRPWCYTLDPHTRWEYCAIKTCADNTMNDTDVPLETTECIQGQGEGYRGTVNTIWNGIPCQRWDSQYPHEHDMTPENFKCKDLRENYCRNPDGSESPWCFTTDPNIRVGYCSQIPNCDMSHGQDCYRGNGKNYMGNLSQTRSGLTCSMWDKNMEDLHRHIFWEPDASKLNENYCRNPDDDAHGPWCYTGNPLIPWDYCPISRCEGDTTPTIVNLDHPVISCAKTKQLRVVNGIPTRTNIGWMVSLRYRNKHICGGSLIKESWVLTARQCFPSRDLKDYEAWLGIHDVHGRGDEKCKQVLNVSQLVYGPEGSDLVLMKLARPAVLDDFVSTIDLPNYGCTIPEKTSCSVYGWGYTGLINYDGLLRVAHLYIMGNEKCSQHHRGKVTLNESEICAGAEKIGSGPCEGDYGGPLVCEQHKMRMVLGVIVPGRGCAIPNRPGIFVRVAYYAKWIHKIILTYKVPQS
T2 sequence (P14210 32-728 limits assumed): as above

Row | Binder | koff [1] [s⁻¹] | koff [2] [s⁻¹] | IC50 [3] [nM] | koff [4] [s⁻¹] | koff [5] [s⁻¹] | koff [6] [s⁻¹] | IC50 (read off the curve) [7] [nM]
1 | B1 | 0.001 | 0.00155 | 2.1 | 0.000952 | 0.00241 |  | 
2 | B2 |  | 0.0019 |  | 0.000821 |  | 0.00605 | ~10

Reference: patent US20150010546A1 (Ablynx, published 2015)
